According to publication PMC5108336, “Tubular epithelial cells in renal clear cell carcinoma express high RIPK1/3 and show increased susceptibility to TNF receptor 1-induced necroptosis” (Cell Death & Disease, 2016):

T1: Mixed lineage kinase domain-like phosphorylated at Serine 358 (human (endogenous in RCC and kidney …, UniProt Q8NB16 1-471, phosphoserine at 358))
T1 construct: also called pMLKL^Ser358; phospho-MLKL^Ser358; source: endogenous, organ cultures of human RCC grade 1 and adjacent non-tumor kidney (tissue sections)
T1 sequence (looked up): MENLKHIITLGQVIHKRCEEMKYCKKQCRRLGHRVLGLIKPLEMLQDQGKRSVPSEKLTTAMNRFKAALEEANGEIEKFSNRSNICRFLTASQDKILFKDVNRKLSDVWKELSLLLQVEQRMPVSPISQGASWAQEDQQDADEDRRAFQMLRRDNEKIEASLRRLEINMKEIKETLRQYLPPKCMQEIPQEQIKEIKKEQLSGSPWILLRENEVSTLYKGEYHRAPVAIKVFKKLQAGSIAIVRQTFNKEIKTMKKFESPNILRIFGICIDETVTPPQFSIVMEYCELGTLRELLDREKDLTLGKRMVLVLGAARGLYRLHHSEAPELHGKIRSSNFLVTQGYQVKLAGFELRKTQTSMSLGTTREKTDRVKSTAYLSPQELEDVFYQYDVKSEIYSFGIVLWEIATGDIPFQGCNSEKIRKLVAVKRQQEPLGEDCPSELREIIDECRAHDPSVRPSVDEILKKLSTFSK

B1: receptor-interacting protein kinase 3 (natural protein, UniProt Q9Y572-1 1-518, looked up)
chain: MSCVKLWPSGAPAPLVSIEELENQELVGKGGFGTVFRAQHRKWGYDVAVKIVNSKAISREVKAMASLDNEFVLRLEGVIEKVNWDQDPKPALVTKFMENGSLSGLLQSQCPRPWPLLCRLLKEVVLGMFYLHDQNPVLLHRDLKPSNVLLDPELHVKLADFGLSTFQGGSQSGTGSGEPGGTLGYLAPELFVNVNRKASTASDVYSFGILMWAVLAGREVELPTEPSLVYEAVCNRQNRPSLAELPQAGPETPGLEGLKELMQLCWSSEPKDRPSFQECLPKTDEVFQMVENNMNAAVSTVKDFLSQLRSSNRRFSIPESGQGGTEMDGFRRTIENQHSRNDVMVSEWLNKLNLEEPPSSVPKKCPSLTKRSRAQEEQVPQAWTAGTSSDSMAQPPQTPETSTFRNQMPSPTSTGTPSPGPRGNQGAERQGMNWSCRTPEPNPVTGRPLVNIYNCSGVQVGDNNYLTMQQTTALPTWGLAPSGKGRGLQHPPPVGSQEGPKDPEAWSRPQGWYNHSGK
notes: Detected in situ by an anti-RIPK3 antibody; also called RIPK3; source: endogenous, organ cultures of human RCC grade 1 and adjacent non-tumor kidney (tissue sections)

Assays:
[1] = target: B1; assay: proximity ligation; in situ PLA (Duolink In Situ Detection Reagents Red) on sections of organ cultures of RCC grade 1 and adjacent non-tumor kidney (NK), untreated (UT) or treated with wtTNF (10 ng/ml), R1TNF or R2TNF (1 ug/ml) for 3 h at 37 °C; signal when two proteins are closer than 40 nm; red spots counted in mTECs in 10 random fields at x40; details: partners not purified
[2] = target: T1, Mixed lineage kinase domain-like …; assay: as above; details: partners not purified

Binder	fold increase of PLA signal with R1TNF over untreated (non-tumor kidney organ culture) [1] [fold]	fold increase of PLA signal with R1TNF over untreated (non-tumor kidney organ culture) [2] [fold]
receptor-interacting protein kinase 1 (natural protein, UniProt Q13546-1 1-671, looked up, Detected in situ by an anti-RIPK1 antibody; also called RIPK1; source: endogenous, organ cultures of human RCC grade 1 and adjacent non-tumor kidney (tissue sections)) MQPDMSLNVIKMKSSDFLESAELDSGGFGKVSLCFHRTQGLMIMKTVYKGPNCIEHNEALLEEAKMMNRLRHSRVVKLLGVIIEEGKYSLVMEYMEKGNLMHVLKAEMSTPLSVKGRIILEIIEGMCYLHGKGVIHKDLKPENILVDNDFHIKIADLGLASFKMWSKLNNEEHNELREVDGTAKKNGGTLYYMAPEHLNDVNAKPTEKSDVYSFAVVLWAIFANKEPYENAICEQQLIMCIKSGNRPDVDDITEYCPREIISLMKLCWEANPEARPTFPGIEEKFRPFYLSQLEESVEEDVKSLKKEYSNENAVVKRMQSLQLDCVAVPSSRSNSATEQPGSLHSSQGLGMGPVEESWFAPSLEHPQEENEPSLQSKLQDEANYHLYGSRMDRQTKQQPRQNVAYNREEERRRRVSHDPFAQQRPYENFQNTEGKGTAYSSAASHGNAVHQPSGLTSQPQVLYQNNGLYSSHGFGTRPLDPGTAGPRVWYRPIPSHMPSLHNIPVPETNYLGNTPTMPFSSLPPTDESIKYTIYNSTGIQIGAYNYMEIGGTSSSLLDSTNTNFKEEPAAKYQAIFDNTTSLTDKHLDPIRENLGKHWKNCARKLGFTQSQIDEIDHDYERDGLKEKVYQMLQKWVMREGIKGATVGKLAQALHQCSRIDLLSSLIYVSQN	~3	
B1		~2.5
